{"source": "IntAct's records for PubMed 18923430", "parents": {"B1": {"name": "DnaJ homolog subfamily C member 3 (Mus musculus), Q91YW3 (parent)", "chain": "MVAPGSVGSRLGAVFPFLLVLVDLQYEGAECGVNADVEKHLELGKKLLAAGQLADALSQFHAAVDGDPDNYIAYYRRATVFLAMGKSKAALPDLTKVIALKMDFTAARLQRGHLLLKQGKLDEAEDDFKKVLKSNPSEQEEKEAESQLVKADEMQRLRSQALDAFDGADYTAAITFLDKILEVCVWDAELRELRAECFIKEGEPRKAISDLKAASKLKSDNTEAFYKISTLYYQLGDHELSLSEVRECLKLDQDHKRCFAHYKQVKKLNKLIESAEELIRDGRYTDATSKYESVMKTEPSVAEYTVRSKERICHCFSKDEKPVEAIRICSEVLQMEPDNVNALKDRAEAYLIEEMYDEAIQDYEAAQEHNENDQQIREGLEKAQRLLKQSQKRDYYKILGVKRNAKKQEIIKAYRKLALQWHPDNFQNEEEKKKAEKKFIDIAAAKEVLSDPEMRKKFDDGEDPLDAESQQGGGGNPFHRSWNSWQGFNPFSSGGPFRFKFHFN"}}}
{"variants_of": "B1", "conditions": "with bip_human HSPA5, P11021"}
{"variant": "MVAPGSVGSRLGAVFPFLLVLVDLQYEGAECGVNADVEKHLELGKKLLAAGQLADALSQFHAAVDGDPDNYIAYYRRATVFLAMGKSKAALPDLTKVIALKMDFTAARLQRGHLLLKQGKLDEAEDDFKKVLKSNPSEQEEKEAESQLVKADEMQRLRSQALDAFDGADYTAAITFLDKILEVCVWDAELRELRAECFIKEGEPRKAISDLKAASKLKSDNTEAFYKISTLYYQLGDHELSLSEVRECLKLDQDHKRCFAHYKQVKKLNKLIESAEELIRDGRYTDATSKYESVMKTEPSVAEYTVRSKERICHCFSKDEKPVEAIRICSEVLQMEPDNVNALKDRAEAYLIEEMYDEAIQDYEAAQEHNENDQQIREGLEKAQRLLKQSQKRDYYKILGVKRNAKKQEIIKAYRKLALQWQPDNFQNEEEKKKAEKKFIDIAAAKEVLSDPEMRKKFDDGEDPLDAESQQGGGGNPFHRSWNSWQGFNPFSSGGPFRFKFHFN", "note": "[H422Q]", "effect of a mutation on the interaction": "disrupting interaction"}
